The source of these data is patent US20150098945A1 (Daiichi Sankyo, published 2015).

Changes are numbered by the printed parent chain.

In assay [1] the target is T1, mouse ROBO4 (pCI-mROBO4-transfected HEK293 cells) (mouse, UniProt Q8C310 28-1012).
T1 sequence: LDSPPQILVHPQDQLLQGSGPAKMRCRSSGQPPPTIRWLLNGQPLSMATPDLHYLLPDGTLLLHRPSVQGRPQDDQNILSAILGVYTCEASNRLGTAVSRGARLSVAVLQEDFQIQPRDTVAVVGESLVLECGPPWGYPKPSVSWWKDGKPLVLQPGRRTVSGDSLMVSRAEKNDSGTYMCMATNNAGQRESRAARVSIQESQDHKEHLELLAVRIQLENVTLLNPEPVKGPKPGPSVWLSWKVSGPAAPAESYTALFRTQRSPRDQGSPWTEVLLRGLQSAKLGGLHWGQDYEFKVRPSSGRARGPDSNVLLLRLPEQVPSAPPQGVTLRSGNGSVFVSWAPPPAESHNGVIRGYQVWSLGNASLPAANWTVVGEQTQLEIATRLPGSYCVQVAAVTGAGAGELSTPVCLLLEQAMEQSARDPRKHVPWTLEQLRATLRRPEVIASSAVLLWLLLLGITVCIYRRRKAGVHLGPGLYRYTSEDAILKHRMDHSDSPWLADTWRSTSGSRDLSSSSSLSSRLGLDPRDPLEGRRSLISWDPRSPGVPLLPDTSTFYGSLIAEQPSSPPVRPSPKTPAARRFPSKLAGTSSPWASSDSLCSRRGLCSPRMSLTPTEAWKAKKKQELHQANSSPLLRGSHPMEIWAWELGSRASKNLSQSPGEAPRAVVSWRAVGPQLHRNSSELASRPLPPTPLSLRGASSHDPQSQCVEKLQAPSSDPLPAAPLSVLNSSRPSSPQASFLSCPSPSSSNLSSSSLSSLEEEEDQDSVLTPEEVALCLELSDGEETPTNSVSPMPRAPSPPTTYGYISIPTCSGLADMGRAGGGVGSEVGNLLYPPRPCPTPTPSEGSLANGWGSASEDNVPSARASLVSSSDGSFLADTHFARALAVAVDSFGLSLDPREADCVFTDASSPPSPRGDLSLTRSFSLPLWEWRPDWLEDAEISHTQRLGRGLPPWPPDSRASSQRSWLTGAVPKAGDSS
Nature of the assay: flow cytometry on transfected HEK293 cells. For orientation: In flow cytometry, cells or beads pass a laser one at a time.

The target in assay [2] is T2, N-terminal FLAG-tagged cynomolgus monkey ROBO4, cynoROBO4-2 (pCI-FLAG-cynoROBO4-2) (cynomolgus monkey, UniProt Q8WZ75 28-1007 (human entry)).
T2 chain: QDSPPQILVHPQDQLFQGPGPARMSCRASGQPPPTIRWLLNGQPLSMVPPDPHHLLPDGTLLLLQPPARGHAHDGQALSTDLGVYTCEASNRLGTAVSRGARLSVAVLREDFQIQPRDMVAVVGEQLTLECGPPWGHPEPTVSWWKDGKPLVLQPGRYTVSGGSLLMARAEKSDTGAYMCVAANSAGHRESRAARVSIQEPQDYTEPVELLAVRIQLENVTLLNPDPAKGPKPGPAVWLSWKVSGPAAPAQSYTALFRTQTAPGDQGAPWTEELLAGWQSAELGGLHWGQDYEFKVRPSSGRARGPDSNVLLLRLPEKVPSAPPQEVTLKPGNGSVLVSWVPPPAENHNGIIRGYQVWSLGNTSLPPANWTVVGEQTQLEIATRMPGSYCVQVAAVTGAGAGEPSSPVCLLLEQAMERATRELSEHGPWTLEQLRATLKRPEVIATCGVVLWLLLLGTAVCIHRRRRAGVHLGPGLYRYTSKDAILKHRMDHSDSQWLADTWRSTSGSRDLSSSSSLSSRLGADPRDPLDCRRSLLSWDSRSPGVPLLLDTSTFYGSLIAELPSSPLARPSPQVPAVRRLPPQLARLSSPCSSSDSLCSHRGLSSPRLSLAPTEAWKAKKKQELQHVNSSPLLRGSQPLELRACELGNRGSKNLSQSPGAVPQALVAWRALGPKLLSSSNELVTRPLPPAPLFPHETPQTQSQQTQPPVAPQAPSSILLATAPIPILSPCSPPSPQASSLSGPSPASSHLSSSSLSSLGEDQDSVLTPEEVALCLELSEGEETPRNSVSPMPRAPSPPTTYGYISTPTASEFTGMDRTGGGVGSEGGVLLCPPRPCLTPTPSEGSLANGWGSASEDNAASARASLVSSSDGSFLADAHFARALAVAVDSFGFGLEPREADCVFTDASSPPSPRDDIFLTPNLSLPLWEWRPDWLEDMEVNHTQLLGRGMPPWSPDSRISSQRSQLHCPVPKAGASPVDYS
Nature of the assay: flow cytometry (FC500), HEK293 cells transfected with pCI-FLAG-cynoROBO4-2, antibody at 10 µg/mL, FITC goat anti-human IgG Fc; control histogram IgG (human IgG).

B1: humanized MAb1 antibody H-1140 (antibody, human IgG2, kappa, V domains shown)
VH: EVQLVESGGGLVQPGGSLRLSCAASGFTFSTYAMSWVRQAPGKGLEWVATISQGGTYTYYPDSVKGRFTISRDNAKNTLYLQMNSLRAEDTAVYYCARLIYYDYLDYWGQGTLVTVSS
VL: DIVMTQSPLSLPVTLGEPASISCRSSQSLENSNGNTYLNWYLQKPGQSPQLLIYRVSNRFSGVPDRFSGSGSGTDFTLKISRVEAEDVGVYYCLQVTHVPWTFGPGTKVDIKR
notes: Human IgG2 / kappa constant regions; also called hMAb1-H2-type heavy chain + hMAb1-L1-type light chain
As for B1, in assay [1], the binding result is listed as “no binding (tested: 10 µg/mL (method of 4)-3-2))”.

B2: humanized MAb1 antibody H-2143 (antibody, human IgG2, kappa, V domains shown)
VH: B1 VH with G44R
VL: B1 VL with S32E, G34K, T36L
notes: Human IgG2 / kappa constant regions; also called hMAb1-H4-type heavy chain + hMAb1-L2-type light chain
Regarding B2, the binding result in assay [2] is reported as “binds”.
